Values belong to the molecule of their own block, whether it stands above or below them.
Assays:
[1] = biological target: human PTK7 expressed on cells (cancer cell lines with endogenous PTK7; HEK293T-PTK7 over-expressing cells) (human) (UniProt Q13308); assay: flow cytometry, H446 cells, 10 µg/mL
[2] = biological target: human PTK7 expressed on cells (cancer cell lines with endogenous PTK7; HEK293T-PTK7 over-expressing cells) (human) (UniProt Q13308); assay: flow cytometry, H661 cells, 10 µg/mL
[3] = biological target: human PTK7 expressed on cells (cancer cell lines with endogenous PTK7; HEK293T-PTK7 over-expressing cells) (human) (UniProt Q13308); assay: flow cytometry, U2OS cells, 10 µg/mL
[4] = biological target: T1, human PTK7 expressed on cells (cancer cell lines with endogenous PTK7; HEK293T-PTK7 over-expressing cells) (human, UniProt Q13308 31-1070); assay: cell-based or functional assay
T1 sequence: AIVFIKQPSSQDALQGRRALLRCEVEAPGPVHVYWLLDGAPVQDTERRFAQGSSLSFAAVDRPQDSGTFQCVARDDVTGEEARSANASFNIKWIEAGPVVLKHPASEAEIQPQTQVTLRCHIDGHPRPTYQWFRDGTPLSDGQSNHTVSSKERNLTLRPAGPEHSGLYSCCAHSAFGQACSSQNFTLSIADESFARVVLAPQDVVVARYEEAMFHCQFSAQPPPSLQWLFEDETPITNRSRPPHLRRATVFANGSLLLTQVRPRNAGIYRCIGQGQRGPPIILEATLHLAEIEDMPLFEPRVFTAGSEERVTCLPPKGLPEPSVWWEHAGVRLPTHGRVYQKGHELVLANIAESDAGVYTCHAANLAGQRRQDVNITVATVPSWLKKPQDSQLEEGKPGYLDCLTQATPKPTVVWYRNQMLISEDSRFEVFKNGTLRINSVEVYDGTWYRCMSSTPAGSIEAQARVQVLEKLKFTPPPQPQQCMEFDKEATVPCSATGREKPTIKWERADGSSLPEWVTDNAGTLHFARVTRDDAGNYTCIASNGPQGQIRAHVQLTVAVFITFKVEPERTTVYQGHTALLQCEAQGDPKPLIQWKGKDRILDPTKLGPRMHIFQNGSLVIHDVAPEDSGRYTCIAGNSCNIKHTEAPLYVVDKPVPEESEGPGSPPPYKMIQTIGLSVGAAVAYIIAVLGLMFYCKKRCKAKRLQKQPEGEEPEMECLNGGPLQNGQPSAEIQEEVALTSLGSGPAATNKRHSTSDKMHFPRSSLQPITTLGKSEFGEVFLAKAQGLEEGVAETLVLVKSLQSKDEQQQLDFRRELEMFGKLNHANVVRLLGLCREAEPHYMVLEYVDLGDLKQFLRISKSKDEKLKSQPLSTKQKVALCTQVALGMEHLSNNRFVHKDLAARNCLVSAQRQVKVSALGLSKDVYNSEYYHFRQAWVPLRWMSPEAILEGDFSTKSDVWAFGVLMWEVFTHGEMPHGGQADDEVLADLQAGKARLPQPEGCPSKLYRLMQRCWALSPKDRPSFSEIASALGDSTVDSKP

MFI [1]: 11
MFI [2]: 4.2
MFI [3]: 5.3
Molecule: Control mAb (Table 7) (antibody)

B1: hu23 (humanized anti-PTK7 antibody) (antibody, V domains shown)
VH: QITLKESGPTLVKPTQTLTLTCTFSGFSLSTSNMGVGWIRQPPGKALEWLAHIWWDDDKYYSPSLKSRLTITKDTSKNQVVLTMTNMDPVDTATYYCVRSNYGYAWFAYWGQGTLVTVSS
VL: DIQMTQSPSSLSASVGDRVTITCKASQDIYPYLNWFQQKPGKAPKTLIYRTNRLLDGVPSRFSGSGSGTDFTFTISSLQPEDIATYYCLQYDEFPLTFGAGTKLEIKR
IC50 of cell viability (MTS), antibody + saporin-conjugated anti-human Fab (Fab-ZAP), DMS114 cells [4]: 0.0103 µg/mL
IC50 of cell viability (MTS), antibody + saporin-conjugated anti-human Fab (Fab-ZAP), H446 cells [4]: 0.0447 µg/mL

Source: patent publication US20180094075A1 (Pfizer, published 2018)
